Results published in patent publication US20250320297A1.

Target: human PDL1 stably expressed on CHO cells (human) (UniProt Q9NZQ7)
Sequence (Q9NZQ7 19-290 limits assumed): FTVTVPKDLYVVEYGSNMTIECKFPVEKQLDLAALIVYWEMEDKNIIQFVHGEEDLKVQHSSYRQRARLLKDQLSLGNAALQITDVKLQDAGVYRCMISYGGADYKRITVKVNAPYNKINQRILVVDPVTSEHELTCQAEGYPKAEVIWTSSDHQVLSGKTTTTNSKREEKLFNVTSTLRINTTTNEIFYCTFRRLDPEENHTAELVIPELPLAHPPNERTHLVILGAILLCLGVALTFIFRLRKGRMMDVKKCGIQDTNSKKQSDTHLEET

EC50; NFAT luciferase reporter (RLU), CHO cells with human PDL1 co-incubated with Jurkat cells with human PD1 and NFAT reporter, blocking of PDL1/PD1: 0.0532 nM
Substance: Reference Ab 1 (analog of MPDL3280A) (antibody)
